Laboratory results from PMC7968997.
Residue numbers refer to the chain shown, from its start.

Legend:
Assay in all cases: fluorescence polarization
[1] = biological target: T1, RBM45 RRM1-2 F29A/F70A (RRM2 analog) (Homo sapiens, UniProt Q8IUH3 23-202, F29A;F70A)
T1 sequence: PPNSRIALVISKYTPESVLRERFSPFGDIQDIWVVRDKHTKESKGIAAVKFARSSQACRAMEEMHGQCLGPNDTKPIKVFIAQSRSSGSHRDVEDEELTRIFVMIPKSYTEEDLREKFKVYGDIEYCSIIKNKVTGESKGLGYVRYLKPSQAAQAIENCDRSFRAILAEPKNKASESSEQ

RRM2 analog R122A = biological target: T2, RRM2 analog R122A (Homo sapiens, UniProt Q8IUH3 23-202, F29A;F70A;R122A)
T2 sequence: T1 sequence with R100A

RRM1 analog R27A = biological target: T3, RRM1 analog R27A (Homo sapiens, UniProt Q8IUH3 23-202, R27A;F124A;Y165A)
T3 sequence: T1 sequence with R5A, A7F, A48F, F102A, Y143A

RRM2 analog F124A = biological target: T4, RRM2 analog F124A (Homo sapiens, UniProt Q8IUH3 23-202, F29A;F70A;F124A)
T4 sequence: T1 sequence with F102A

RBM45 RRM1-2 WT = biological target: T5, RBM45 RRM1-2 WT (Homo sapiens, UniProt Q8IUH3 23-202)
T5 sequence: T1 sequence with A7F, A48F

[2] = biological target: T6, RBM45 RRM1-2 F124A/Y165A (RRM1 analog) (Homo sapiens, UniProt Q8IUH3 23-202, F124A;Y165A)
T6 sequence: T1 sequence with A7F, A48F, F102A, Y143A

Question: GGACGG (ssRNA) [GGACGG RNA] was tested. Which Kd [1] did it give?
Answer: 1.48 ± 0.11 µM

Question: And the Kd (RRM2 analog R122A)?
Answer: 18.7 µM

Question: And the Kd (RRM1 analog R27A)?
Answer: 14.4 µM

Question: And the Kd (RRM2 analog F124A)?
Answer: 15.6 µM

Question: And the Kd (RBM45 RRM1-2 WT)?
Answer: 0.457 ± 0.053 µM

Question: What about the Kd [2] of the same binder?
Answer: 0.788 ± 0.092 µM
